Read-outs that look alike come from different tables or passages of the source.
Assays:
[1] = tested on: synthetic substrate peptide […]
[2] = tested on: MBP-ENLYFQS-GST fusion protein
[3] = molecular target: synthetic substrate peptide […]; remark: listed apart in the source

In the case of “TEV variant E1 (Q74L, S200N on the TEV-EAV template)”, the “activity on the peptide in vitro” value [1] is reported as “six selected clones showed higher activity on the peptide […] (SEQ ID NO:33) compared to TEV-EAV”.

For “TEV variant E2 (S3I, P8Q, S31T, A231V on the TEV-EAV template)”, the “activity on the peptide in vitro” value [1] was “six selected clones showed higher activity on the peptide […] (SEQ ID NO:33) compared to TEV-EAV”.

For “TEV variant E5 (K6M, S15L on the TEV-EAV template)”, the “activity on the peptide in vitro” value [1] was “six selected clones showed higher activity on the peptide […] (SEQ ID NO:33) compared to TEV-EAV”.

In the case of “TEV variant S6 (E79S, A173G, V219S on the TEV-EAV template)”, the “activity on the peptide in vitro” value [1] is reported as “six selected clones showed higher activity on the peptide […] (SEQ ID NO:33) compared to TEV-EAV”.

In the case of “TEV variant S7 (E79G, S219R on the TEV-EAV template)”, the “activity on the peptide in vitro” value [1] is reported as “six selected clones showed higher activity on the peptide […] (SEQ ID NO:33) compared to TEV-EAV”.

For “TEV variant S8 (A173D, V219K on the TEV-EAV template)”, the “activity on the peptide in vitro” value [1] was “six selected clones showed higher activity on the peptide […] (SEQ ID NO:33) compared to TEV-EAV”.

TEV-S219P was tested, and the “percent of fusion protein digested in 40 minutes at 30° C. at a 1:100 ratio” value [2] was “compared to ˜68% for TEV-EAV and TEV-S219P”.

uTEV3 was tested, and the “percent of fusion cleaved after 30 mins at a 1:200 protease to substrate ratio” value [2] was “compared to only 30% cleavage with uTEV3” and the KM [1] was “the improved catalytic efficiency in uTEV3 appears to be mainly due to a significant KM decrease”.

B1: TEV-EAV, triple mutant TEV variant (G79E, T173A, S219V) (protein)
chain: GESLFKGPRDYNPISSTICHLTNESDGHTTSLYGIGFGPFIITNKHLFRRNNGTLLVQSLHGVFKVKNTTTLQQHLIDERDMIIIRMPKDFPPFPQKLKFREPQREERICLVTNFQTKSMSSMVSDTSCTFPSSDGIFWKHWIQTKDGQCGSPLVSTRDGFIVGIHSASNFANTNNYFTSVPKNFMELLTNQEAQQWVSGWRLNADSVLWGGHKVFMVKPEEPFQPVKEATQLM
For B1, the KM [3] was “KM of eTEV remained unchanged at 65 µM with that of TEV-EAV” and the “turnover rate (kcat)” value [3] was “the turnover rate (kcat) was improved from 0.17 s^-1 to 0.41 s^-1”.

B2: enhanced TEV "eTEV" mutant TEV protease (S3I, P8Q, S31T, E79G, T173A, S219R, A231V) (protein)
chain: ILFKGQRDYNPISSTICHLTNESDGHTTTLYGIGFGPFIITNKHLFRRNNGTLLVQSLHGVFKVKNTTTLQQHLIDGRDMIIIRMPKDFPPFPQKLKFREPQREERICLVTTNFQTKSMSSMVSDTSCTFPSSDGIFWKHWIQTKDGQCGSPLVSTRDGFIVGIHSASNFANTNNYFTSVPKNFMELLTNQEAQQWVSGWRLNADSVLWGGHKVFMRKPEEPFQPVKEVTQLMRRRRR
For B2, the KM [3] was “KM of eTEV remained unchanged at 65 µM with that of TEV-EAV”, the “fold decreased KM compared to TEV-S219P” value [3] was 2.77-fold decreased KM and the “fold improvement in catalytic efficiency (kcat/KM) compared to TEV-EAV” value [3] was 2-fold improvement in catalytic efficiency (kcat/KM) compared to TEV-EAV. The “fold increase in catalytic efficiency relative to the parent TEV-S219P” value [3] was ~8-fold overall increase in catalytic efficiency relative to the parent TEV-S219P, the “fold increased catalytic turnover rate (kcat) compared to TEV-S219P” value [3] was 2.73-fold increased catalytic turnover rate (kcat) and the “turnover rate (kcat)” value [3] was “the turnover rate (kcat) was improved from 0.17 s^-1 to 0.41 s^-1”.

From patent US20250019740
